In US20250115669A1, “FGFR1/KLB Targeting Agonistic Antigen-Binding Proteins and Conjugates Thereof with GLP-1R Agonistic Peptides” (SANOFI, priority 2020, published 2025):

Experiments:
[1] = Dynamic light scattering (DLS) and diffusion interaction parameter (kD); assay type: physicochemical
Protocol: Dynamic light scattering (DLS) was performed using a DynaPro Plate Reader (Wyatt Technology). The samples were measured in 384 well assay plates (Corning) at 25° C. Data were evaluated by cumulant fitting using Dynamics Software version 7.7.0.125 (Wyatt Technology).
Colloidal stability of the samples was assessed by measuring the diffusion interaction parameter (kD) at 20° C. using a DynaPro Plate Reader (Wyatt Technology). Before the measurements the samples were buffer exchanged against 5 L of 10 mmol/L Histidine pH 6.0 by dialysis for 20 h with one buffer change using 1 mL Float-A-Lyzer G2 devices with 3.5-5 kDa cut-off (Spectrum Labs). A dilution series from 1 to 4.5 mg/mL, in 0.5 mg/mL increments, was prepared in 10 mmol/L Histidine pH 6.0 and measured in 384 well assay plates (Corning).

[2] = Nano differential scanning fluorimetry (nanoDSF), Tonset and Tm; assay type: physicochemical
Protocol: Onset temperatures (Tonset) and melting points (Tm) of protein denaturation were determined using nano differential scanning fluorimetry (nanoDSF). Samples were diluted in formulation buffer to a final concentration of 0.5 mg/mL and loaded into nanoDSF capillaries in duplicates (Nanotemper Technologies). All measurements were done using a Prometheus NT.plex nanoDSF device (Nanotemper Technologies). Heating rate was 1° C. per minute from 20° C. to 95° C. Data were recorded using PR.ThermControl Software v2.3.1 (Nanotemper Technologies) and analyzed using PR.Stability Analysis Software v1.0.3 (Nanotemper Technologies).

[3] = Capillary gel electrophoresis (cGE); assay type: physicochemical
Protocol: Capillary Gel Electrophoresis (cGE) Purity and size heterogeneity of the samples was determined by capillary gel electrophoresis (cGE) using a CES18000 instrument (SCIEX) equipped with a pre-assembled fused silica capillary (50 μm×300 mm, SCIEX). Protein samples at 1 mg/ml were prepared using the IgG purity heterogeneity Kit (SCIEX) under non-reducing conditions according to the manufacturer's specifications. Samples were electrophoretically separated for 35 minutes at 25° C. and the absorbance at 220 nm was recorded by a photo diode array (PDA) detector. The data were analyzed using 32 Karat Software (SCIEX).

human beta-Klotho = target: T1, human beta-Klotho (Homo sapiens, UniProt Q86Z14); experiment: SPR analysis of the active fraction of stressed antibodies; assay type: binding; conditions: 21 days
T1 sequence (Q86Z14 1-1044): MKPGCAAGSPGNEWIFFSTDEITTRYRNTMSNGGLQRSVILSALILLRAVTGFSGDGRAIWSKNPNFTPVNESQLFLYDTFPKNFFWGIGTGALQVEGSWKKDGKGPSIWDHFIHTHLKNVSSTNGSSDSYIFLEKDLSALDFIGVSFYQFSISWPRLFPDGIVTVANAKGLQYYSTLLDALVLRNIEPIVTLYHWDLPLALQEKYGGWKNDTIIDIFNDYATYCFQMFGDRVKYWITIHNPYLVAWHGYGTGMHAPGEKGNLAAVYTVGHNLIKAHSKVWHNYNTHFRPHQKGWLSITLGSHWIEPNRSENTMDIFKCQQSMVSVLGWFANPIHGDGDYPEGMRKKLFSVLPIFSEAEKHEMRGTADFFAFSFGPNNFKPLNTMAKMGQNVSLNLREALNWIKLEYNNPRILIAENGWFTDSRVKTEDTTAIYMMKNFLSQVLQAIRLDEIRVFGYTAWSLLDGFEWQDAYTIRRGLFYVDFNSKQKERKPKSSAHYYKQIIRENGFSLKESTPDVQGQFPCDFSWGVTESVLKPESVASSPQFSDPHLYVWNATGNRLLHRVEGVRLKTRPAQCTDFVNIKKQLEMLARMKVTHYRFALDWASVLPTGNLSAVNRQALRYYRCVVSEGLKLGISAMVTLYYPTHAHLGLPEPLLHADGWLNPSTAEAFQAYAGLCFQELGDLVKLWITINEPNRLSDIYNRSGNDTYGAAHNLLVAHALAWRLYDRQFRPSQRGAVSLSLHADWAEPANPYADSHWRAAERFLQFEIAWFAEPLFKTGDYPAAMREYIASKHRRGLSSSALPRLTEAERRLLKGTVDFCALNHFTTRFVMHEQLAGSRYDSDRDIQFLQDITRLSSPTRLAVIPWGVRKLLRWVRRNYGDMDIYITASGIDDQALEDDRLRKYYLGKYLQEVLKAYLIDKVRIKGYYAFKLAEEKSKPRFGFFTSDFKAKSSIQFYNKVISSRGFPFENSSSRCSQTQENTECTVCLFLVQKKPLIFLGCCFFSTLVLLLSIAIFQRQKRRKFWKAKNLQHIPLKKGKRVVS
Protocol: Analysis of the active fraction of stressed antibodies was performed by SPR using the same Fc capture assay set up as described above for the affinity determination. In this case the association and dissociation times for human beta-Klotho were set to 240 sec and 300 sec, respectively. The active fraction of the samples was calculated as the ratio of binding signal for human beta-Klotho and the Fc capture signal of the antibody, normalized to the active fraction of the unstressed control samples. Mean values from three experiments were calculated.

Row | Substance | Homogeneity DLS Hydrodynamic radius [1] | DLS Hydrodynamic radius ([1]; pH 5, 40° C., d 21) | DLS Hydrodynamic radius ([1]; pH 5, d 0) | DLS Hydrodynamic radius ([1]; pH 6, 40° C., d 21) | DLS Hydrodynamic radius ([1]; pH 6, d 0) | DLS Hydrodynamic radius ([1]; pH 8, 40° C., d 21) | DLS Hydrodynamic radius ([1]; pH 8, d 0) | Thermal stability DSF Tm [2] | Thermal stability DSF Tonset [2] | DSF Tm ([2]; pH 5, 40° C., d 21) | DSF Tonset ([2]; pH 5, 40° C., d 21) | DSF Tm ([2]; pH 5, d 0) | DSF Tonset ([2]; pH 5, d 0) | DSF Tm ([2]; pH 6, 40° C., d 21) | DSF Tonset ([2]; pH 6, 40° C., d 21) | DSF Tm ([2]; pH 6, d 0) | DSF Tonset ([2]; pH 6, d 0) | DSF Tm ([2]; pH 8, 40° C., d 21) | DSF Tonset ([2]; pH 8, 40° C., d 21) | DSF Tm ([2]; pH 8, d 0) | further results
1 | Ab0428: IgG1 NNAS; 16H7 VL (N25S, D49S, D50E, D91E, N93E); 16H7 VH (M34V, I83T, D109E); HC SEQ ID NO: 41, LC SEQ ID NO: 48 | 5.4 nm | 5.5 nm | 5.4 nm | 5.3 nm | 5.4 nm | 6.1 nm | 5.4 nm | 62 °C | 48 °C | 59 °C | 51 °C | 59 °C | 50 °C | 62 °C | 47 °C | 62 °C | 48 °C | 67 °C | 56 °C | 68 °C | DSF Tonset ([2]; pH 8, d 0): 54 °C; Homogeneity cGE % Monomer [3]: 71%; SPR rel. active fraction (human beta-Klotho; pH 5, 40° C.): 94%; SPR rel. active fraction (human beta-Klotho; pH 6, 40° C.): 93%; SPR rel. active fraction (human beta-Klotho; pH 8, 40° C.): 79%
2 | Ab0430: IgG1 NNAS; 16H7 VL (N25S, D49E, D50E, D91E, N93E); 16H7 VH (M34V, I83T, D109E); HC SEQ ID NO: 43, LC SEQ ID NO: 50 | 5.4 nm | 5.4 nm | 5.4 nm | 5.4 nm | 5.4 nm | 6.3 nm | 5.4 nm | 62 °C | 45 °C | 62 °C | 46 °C | 62 °C | 45 °C | 62 °C | 46 °C | 62 °C | 45 °C | 66 °C | 56 °C | 66 °C | DSF Tonset ([2]; pH 8, d 0): 56 °C; Homogeneity cGE % Monomer [3]: 62%; SPR rel. active fraction (human beta-Klotho; pH 5, 40° C.): 94%; SPR rel. active fraction (human beta-Klotho; pH 6, 40° C.): 92%; SPR rel. active fraction (human beta-Klotho; pH 8, 40° C.): 75%
3 | Ab0351: IgG4 PE; 16H7 VL (N25S, D49E, D50E, D91E, N93E); 16H7 VH (M34V, I83T, D109E); HC SEQ ID NO: 40, LC SEQ ID NO: 47 | 5.3 nm | 5.6 nm | 5.4 nm | 5.2 nm | 5.2 nm | 8.1 nm | 5.6 nm | 62 °C | 53 °C | 61 °C | 45 °C | 61 °C | 50 °C | 62 °C | 52 °C | 62 °C | 53 °C | 66 °C | 57 °C | 66 °C | DSF Tonset ([2]; pH 8, d 0): 58 °C; Homogeneity cGE % Monomer [3]: 83%; SPR rel. active fraction (human beta-Klotho; pH 5, 40° C.): 95%; SPR rel. active fraction (human beta-Klotho; pH 6, 40° C.): 92%; SPR rel. active fraction (human beta-Klotho; pH 8, 40° C.): 75%
